This experiment has as its target PP2A regulatory subunit B56γ (human (endogenous in human HEK TER cells)), Q13362. Put plainly: anti-FLAG co-IP from HEK TER cells, immunoblot, densitometry; +++ >90%, ++ 50-90%, + <50%. As to conditions: remark: other sources report otherwise. For orientation: In western blotting, separated proteins are transferred to a membrane and probed.

Data on 1 molecule can be found in patent US20110306057A1.

PP2A regulatory subunit B56γ (human (endogenous in human HEK TER cells)), Q13362, sequence (Q13362 whole entry): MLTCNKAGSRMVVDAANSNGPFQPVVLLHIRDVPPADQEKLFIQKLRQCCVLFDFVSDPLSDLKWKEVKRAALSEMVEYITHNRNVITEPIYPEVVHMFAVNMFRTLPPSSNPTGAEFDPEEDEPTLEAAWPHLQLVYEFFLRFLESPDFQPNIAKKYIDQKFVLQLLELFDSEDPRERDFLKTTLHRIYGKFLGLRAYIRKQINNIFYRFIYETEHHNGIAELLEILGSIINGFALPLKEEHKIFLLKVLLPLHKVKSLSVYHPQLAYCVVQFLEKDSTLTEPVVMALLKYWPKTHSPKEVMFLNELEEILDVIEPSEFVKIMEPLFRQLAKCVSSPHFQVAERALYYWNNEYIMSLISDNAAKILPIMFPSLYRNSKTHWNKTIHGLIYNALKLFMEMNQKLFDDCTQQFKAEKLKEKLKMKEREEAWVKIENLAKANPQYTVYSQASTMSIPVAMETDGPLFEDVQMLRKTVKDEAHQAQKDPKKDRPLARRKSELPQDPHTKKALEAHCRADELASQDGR

B1: wild type (WT) FLAG epitope-tagged version of PP2A Aβ, P30154 1-601 (protein, not shown: small tags and cut ends)
chain: MAGASELGTGPGAAGGDGDDSLYPIAVLIDELRNEDVQLRLNSIKKLSTIALALGVERTRSELLPFLTDTIYDEDEVLLALAEQLGNFTGLVGGPDFAHCLLPPLENLATVEETVVRDKAVESLRQISQEHTPVALEAYFVPLVKRLASGDWFTSRTSACGLFSVCYPRASNAVKAEIRQQFRSLCSDDTPMVRRAAASKLGEFAKVLELDSVKSEIVPLFTSLASDEQDSVRLLAVEACVSIAQLLSQDDLETLVMPTLRQAAEDKSWRVRYMVADRFSELQKAMGPKITLNDLIPAFQNLLKDCEAEVRAAAAHKVKELGENLPIEDRETIIMNQILPYIKELVSDTNQHVKSALASVIMGLSTILGKENTIEHLLPLFLAQLKDECPDVRLNIISNLDCVNEVIGIRQLSQSLLPAIVELAEDAKWRVRLAIIEYMPLLAGQLGVEFFDEKLNSLCMAWLVDHVYAIREAATNNLMKLVQKFGTEWAQNTIVPKVLVMANDPNYLHRMTTLFCINALSEACGQEITTKQMLPIVLKMAGDQVANVRFNVAKSLQKIGPILDTNALQGEVKPVLQKLGQDEDMDVKYFAQEAISVLALA
On to B1, for which the binding level (percent, co-immunoprecipitation densitometry) is above 90%.
